# Measured values published in paper PMC11261779, “Structural studies of WDR5 in complex with MBD3C WIN motif reveal a unique binding mode” (The Journal of Biological Chemistry, 2024).
# B1: MBD3C_(40-51) peptide (methyl-CpG binding domain 3 isoform C, WIN motif) (peptide)
# peptide: GAARCRVFSPQG
# notes: numbers count on: isoform MBD3C; also called MBD3C peptide; MBD3C WIN motif; source: synthetic peptide (GenScript)
# B2: MBD3C_(40-51) (R45E) peptide (peptide)
# peptide: GAARCEVFSPQG
# notes: numbers count on: isoform MBD3C; also called MBD3C^R45E; source: synthetic peptide (GenScript)
# B3: MBD3C_(40-51) (F47A) peptide (peptide)
# peptide: GAARCRVASPQG
# notes: numbers count on: isoform MBD3C; also called MBD3C^F47A; source: synthetic peptide (GenScript)
# B4: MBD3C_(40-51) (F47H) peptide (peptide)
# peptide: GAARCRVHSPQG
# notes: numbers count on: isoform MBD3C; also called MBD3C^F47H; source: synthetic peptide (GenScript)
# B5: MBD3C_(40-51) (R43K) peptide (peptide)
# peptide: GAAKCRVFSPQG
# notes: numbers count on: isoform MBD3C; also called MBD3C^R43K; source: synthetic peptide (GenScript)
# Target: WDR5 (residues 24-334) D107S (mouse, UniProt P61965 24-334, D107S)
# Assay: ITC; peptide (0.5 to 1.0 mM) titrated into WDR5 protein (44.5 μM) in the cell; 20 °C; Buffer D (20 mM Tris-HCl, 200 mM NaCl, pH 7.5); single binding site model
# Conditions: both partners purified
Kd [nM],dH [kcal/mol],stoichiometry N,Binder
10800 ± 1030,-5.4 ± 0.17,1.34,B1

# Target: WD repeat-containing protein 5 (WDR5), truncated construct, residues 24-334 (mouse, UniProt P61965 24-334)
# Assay: as above
# Conditions: both partners purified
Kd [nM],dH [kcal/mol],stoichiometry N,Binder
130 ± 20,-11.4 ± 0.13,1.06,B1
670 ± 60,-7.49 ± 0.08,1.25,B2
650 ± 30,-7.32 ± 0.05,1.34,B3
1010 ± 40,-7.8 ± 0.04,0.99,B4
1310 ± 210,-15 ± 0.52,1.17,B5
